In IntAct's records for PubMed 17872410:

B1: Adagio protein 3 (Arabidopsis thaliana (Mouse-ear cress)), Q9C9W9 (parent)
chain: MAREHAIGEATGKRKKRGRVEEAEEYCNDGIEEQVEDEKLPLEVGMFYYPMTPPSFIVSDALEPDFPLIYVNRVFEVFTGYRADEVLGRNCRFLQYRDPRAQRRHPLVDPVVVSEIRRCLEEGIEFQGELLNFRKDGTPLVNRLRLAPIRDDDGTITHVIGIQVFSETTIDLDRVSYPVFKHKQQLDQTSECLFPSGSPRFKEHHEDFCGILQLSDEVLAHNILSRLTPRDVASIGSACRRLRQLTKNESVRKMVCQNAWGKEITGTLEIMTKKLRWGRLARELTTLEAVCWRKFTVGGIVQPSRCNFSACAVGNRLVLFGGEGVNMQPLDDTFVLNLDAECPEWQRVRVTSSPPGRWGHTLSCLNGSWLVVFGGCGRQGLLNDVFVLDLDAKHPTWKEVAGGTPPLPRSWHSSCTIEGSKLVVSGGCTDAGVLLSDTFLLDLTTDKPTWKEIPTSWAPPSRLGHSLSVFGRTKILMFGGLANSGHLKLRSGEAYTIDLEDEEPRWRELECSAFPGVVVPPPRLDHVAVSMPCGRVIIFGGSIAGLHSPSQLFLIDPAEEKPSWRILNVPGKPPKLAWGHSTCVVGGTRVLVLGGHTGEEWILNELHELCLASRQDSDL
partner: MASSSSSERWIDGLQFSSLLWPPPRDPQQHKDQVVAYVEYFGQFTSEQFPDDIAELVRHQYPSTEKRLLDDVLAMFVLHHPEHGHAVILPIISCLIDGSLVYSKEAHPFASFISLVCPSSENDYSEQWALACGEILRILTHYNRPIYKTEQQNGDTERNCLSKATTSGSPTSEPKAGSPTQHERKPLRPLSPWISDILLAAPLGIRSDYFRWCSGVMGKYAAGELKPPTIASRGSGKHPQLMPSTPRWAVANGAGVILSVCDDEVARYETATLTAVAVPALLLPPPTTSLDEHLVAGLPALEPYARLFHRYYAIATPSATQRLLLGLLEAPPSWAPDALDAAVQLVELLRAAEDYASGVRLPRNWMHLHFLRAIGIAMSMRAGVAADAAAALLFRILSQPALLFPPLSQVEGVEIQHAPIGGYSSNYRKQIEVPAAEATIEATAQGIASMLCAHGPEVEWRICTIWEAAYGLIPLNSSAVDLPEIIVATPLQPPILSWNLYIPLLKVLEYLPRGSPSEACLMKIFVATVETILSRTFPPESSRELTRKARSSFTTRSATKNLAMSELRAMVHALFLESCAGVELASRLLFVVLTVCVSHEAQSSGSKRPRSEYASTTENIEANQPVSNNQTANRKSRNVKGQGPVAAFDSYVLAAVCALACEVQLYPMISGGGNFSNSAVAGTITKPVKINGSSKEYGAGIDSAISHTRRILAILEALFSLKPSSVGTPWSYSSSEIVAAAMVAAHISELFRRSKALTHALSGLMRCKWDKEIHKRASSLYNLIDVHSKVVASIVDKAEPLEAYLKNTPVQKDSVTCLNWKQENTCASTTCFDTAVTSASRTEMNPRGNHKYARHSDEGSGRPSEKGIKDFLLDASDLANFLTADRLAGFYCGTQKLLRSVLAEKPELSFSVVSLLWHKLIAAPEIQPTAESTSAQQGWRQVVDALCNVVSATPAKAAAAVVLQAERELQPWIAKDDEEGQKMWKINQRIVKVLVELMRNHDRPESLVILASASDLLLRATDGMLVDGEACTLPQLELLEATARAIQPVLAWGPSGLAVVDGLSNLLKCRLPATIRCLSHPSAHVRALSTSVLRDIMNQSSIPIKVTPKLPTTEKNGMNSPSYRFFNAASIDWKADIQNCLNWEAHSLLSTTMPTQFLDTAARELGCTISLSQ

Variants of: B1
Conditions: with gigan_arath GI

| Variant | effect of a mutation on the interaction |
| --- | --- |
| Q163L | disrupting interaction |
| R92D | decreasing interaction |
| C91A | decreasing interaction |
